Experimental data taken from paper PMC6586891, “On the molecular and cellular effects of omeprazole to further support its effectiveness as an antigiardial drug” (Scientific Reports, 2019).

Substrate: O=CC(O)COP(=O)(O)O
Test: Michaelis-Menten kinetics of purified enzyme (Km), coupled alpha-GDH/NADH assay
Type: biochemical, Giardia duodenalis

B1: Giardia lamblia triosephosphate isomerase (GlTIM WT) (Giardia duodenalis) (protein)
chain: MPARRPFIGGNFKCNGSLDFIKSHVAAIAAHKIPDSVDVVIAPSAVHLSTAIAANTSKQLRIAAQNVYLEGNGAWTGETSVEMLQDMGLKHVIVGHSERRRIMGETDEQSAKKAKRALEKGMTVIFCVGETLDERKANRTMEVNIAQLEALGKELGESKMLWKEVVIAYEPVWSIGTGVVATPEQAEEVHVGLRKWFAEKVCAEGAQHIRIIYGGSANGSNCEKLGQCPNIDGFLVGGASLKPEFMTMIDILTKTRT
notes: recombinant His-tag/TEV GlTIM WT
Protein B1 has a Km of 780 ± 60 µM, a kcat of 7670 ± 267 s⁻¹ and a kcat/Km of 9.83e+06 M⁻¹ s⁻¹.
